Test results from the nanobody polyreactivity screen of Harvey et al. (2022).

Assay: yeast display, Sf9 membrane polyspecificity reagent, FACS + sequencing; frameworks hold sequencing errors
Outline: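 Genes from sorted yeast were amplified by colony PCR, read by MiSeq 2 × 250 sequencing and filtered on CDR length. These cells carried a synthetic nanobody library in Saccharomyces cerevisiae BJ5465 and were sorted by FACS into low and high (top ~1%) gates on anti-HA and streptavidin fluorescence. Polyreactivity is labelled according to the gate of origin.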

Sequence	polyreactivity (PSR sort gate)
QLQHVESGGGLVQAGGRLRLSCAASGFTFYYYAMGWYRPEPGKERELVAAISSTGGSTYYADSVKGRFTISRDNAKNTVYLQMNSMKPEDTAVYYCNAACYRYPGDYDYWGQGTQVTVSS	high polyreactivity
QVQLVESGGGLVQAGGSLRISCAASGIILSDNAMGWYRQAPGKEREFVAAITGSGGSTYYADSVKGRFTISRDNAKNTVYLQMNSLKPEDTAVYYCAADGPYGYYYGHYGYWGQGTQVTVSS	low polyreactivity
QVQLVESGGGLVQAGGSLRLSCAASGFTFGYYAMGWYRQAPGKERELVATISYGGGSTYYADSVKGRFTISRDNAKNTVYLQMNSLKPEDSAVYYCAASYLVQAPVSGYVYRMYYWGQGTQVTVSS	high polyreactivity
QVQLVESGGGLVQAVGSHRLSSAASGFIFDYNAMGWYRQEPVKVRELVAAISVSDDSTYYADSVKGRFTISRDNAKNTVYLQLNSLKPEVPAGYYCAAEWWDVIAPYDYWGLGTQVTVSS	low polyreactivity
QVQLVESGGGLVQAGGSLRLSCAASGLTFVYNDMGWYRQAPGKERELVAGITSGGSTYYADSVKGRFTISRDNAKNTVYLQMNSLKPEDTAVYYCAADGLSTDLFRPDSIVDYWGQGTQVTVSS	low polyreactivity
QVQLVESGGGLVQAGGSLRLSCAASGRIFYLYAMGWYRQAPGKERELVATISGSGGSTYYADSVKGRFTISRDNAKNTVYLLMISLKPEDTAVYYCAAVSVSSWYDYWGQGTQVSVSS	low polyreactivity
QVQLVESGGGLVQAGGSLRLSCAASGFTFPYNAMGWYRQAPGKERELVAAISRGGGRTYYADSVKGRFTISRDNAKNTVYLQMNSLKPEDTAVYYCAKAPGQDTPYPYGYWGQGTQVTVSS	high polyreactivity
LVQLVESGGRLVQAGGSLRLTCAATGSIFDGNAKGWYRQAPGKDRELVADISRGGSTYYADSVKGRFTISSDNAKNTVYFQLNSLKPEDTAVYDCTVEFFFWPYEYGYWGQGTQVTVSS	low polyreactivity
QVQLVESGGGLVQAGGSLRLSCAASGFTFRRYVMGWYRQAPGKERELVAAISQSGGSTYYADSVKGRFTISRDNAKNTVYLQMNSLKPEDTAVYYCAAAKVPYGWEQSDYWGQGTQVTVSS	high polyreactivity
QVQLVESGGGLVQAGGSLRLSCASSGSISYYAMGWYRQAPGKERELVAAISSGGSTYYADSVKGRFTISRDNAKNTVYLQMNSLKPEDTAVYYCAVRYIIRGYATRYYYWGQGTQVTVSS	high polyreactivity
QDQLVVSGGGLFQAVGSLRLICAASGIFRSYAMGWYRQAPGKERELVAAITGGASGTYYADSVKGRFTISRDNAKNTVYLQMNSLKPEDTAVYFCAAVNRVYFPFRLQVIYGSWGQGTQVTVSS	high polyreactivity
QVQLVESGGGLVQAGGSLSLICAASGFIFLYYAMGWYRQAPGKERELVADISRGADTKYADSVKGRFTISRDNAKNTVYLQMNSLKPEDTAVYYCATDITTFWFPYPGVELGYWGQGTQVTVSS	low polyreactivity
QVQLVESGGPLVQAGGSLRLSCAASGRTIRYYTMGWYRQAPGKEREFVAAITSTGGTYYADSVKGRFTSSRDNAKNTVYLQRTSLKQEDTGVYYCAATFIQFVVNVQLYDYDYWGQGTQVTVSS	low polyreactivity
QVQLVESGGGLVQAGGSLRLSCAASGLIFWRYDMGWYRQAPGKERELVAVITSGGNTYYADSVKGRFTISRDNAKNTVYLQMNSLKPEDTAVYYCNADTWRDDYDYWGQGTQVTVSS	low polyreactivity
QVQLVESGGGLVQAGGSLRLSCAASGIIFGYNAMGWYRQAPGKERELVAAISYGGGRSYYADSVKGRFTISRDNAKNTVYFQMNSLKPEDTAVYYCAAQYFASRSYGYDYWGQGTQVTVSS	high polyreactivity
QVQLVESGGGLVQAGGSLRLSCSASGRIFDKYTMGWYRQAPGKERELVATITRGGVSTYYADSVKGRFTISRDNAKNTVYLQMTSLKPEDTAVYYCNAVWRLRVRYGYWGQGTQVTVSS	high polyreactivity
QVQLVESGGGLVQSGGSLRLSCAASGITSHPYDMGWSRQAPGKERELVAVITSGGSTSYADSVKGRFTISRDNAKNTVYLQMNRLKPEDTAVYYCNADWFTPAQPWYRYFIRYDYWGQGTEVTVSS	low polyreactivity
QVQLVESGGGLVQAGGSLRLSCAASGSIFYAYAMGWYRQAPGKERELVATISRGVNTNYADSVKGRFTISRDNAKNTVYLQMNSLKPEDTAVYYCNARLRYGHGYGYWGQGTQVTVSS	low polyreactivity
QVQLVESGGGLVQAGGSLRLSCAASGFTFHDYVMAWYRQAPGKERELVAAISRSGGSTYYADSVKGRFTISRDNAKHTVYLQMNSLIPEDTAVYYCAAREYTTGGWRYNYWGQGTQVTVSS	high polyreactivity
QVQLVESGGGLVQAGGSLRLSCAASGGTFVYYTMGWYRQAPGKERELVAAITQSGSTTYYADSVKGRFTISRDNAKNTVYLQMNSLKPEDTAVYYCARRYGTWNAYDYWGQGTQVTVSS	low polyreactivity
QVQLVESGGGLVQAAGSLRLSCAASGLTFWKYTMGWNRQAPGKEWELVAAISISGTNTYYADSVKGRFTISRDNAKNTVYLQLNSLKPEDTAVYYCAAVRGYPPTNYYYWGPGTQVTVSS	high polyreactivity
QVQLVESGGGLVQAGGSLRLSCAASGITFRYYAMGWYRQGPGKERELVASITSGGVNTYYADSVKGRFTISRDNANNTDYLQMNSLKPEDTAVFYCATRFSYSALGGYDYWGQGTQVTVSS	low polyreactivity

Sequence	polyreactivity (PSR sort gate)
QVQLVESGGGLVQAGGSLRLSCAASGRTFHRYAMGWYRQAPVKEREVLAAITSSGGSTNYADSVKVRFTISRDNAKNTVYVQMNSLQPEDTAVYYCATDRYRYTSHPWSRGFDYWGQGTQVTVSS	low polyreactivity
QVQLVESGGGLVQAGGSLRLSCAASGSTFYYYSMGWNRQAPGKERELVAAISYRGGTTYYADSVKGRFTISRDNAKNTVYLQMNSLKPEDTAVYYCAAGVSWYRPGSYTGGYWGQGTQVTVSS	high polyreactivity
QVQLVESGGGLVQAGGSLRLSCAASGLTFWANTMGWCRQAPGKEREFVAAITWSGGSTYYADSVKGRFTISRDNAKNTVNLQMNSLKPEDTAVYYCAADEDFAAGYSYYYWGQGSQVTVSS	low polyreactivity
QVQLVESGGGLVQAGGSLRLSCAASGSIFRWYAMGWYRQAPGKEREFVAAISWSGTSTYYADSVKGRFTISRDNAKNTVYLQMNSLKPEDTAVYYCNALLPSSRAPDYGYWGQGTQVTVSS	high polyreactivity
QVQLVESAGGLVQAGGSLRLSCAASGRTFRKYAMGRYRQAPGKERELVAAISSSGGSTFYADSVKGRFTISRDNAKNTVYLQMNSLKPEDTAVYYCAAEALRRYSFGYWGQGTQVTVSS	low polyreactivity
QVQLVESGGGLVQAGGSLRLSCAASGFIFSRYTMGWYRQAPGKERELVAAITWSGGSTYYADSVKGRFTISRDNAKNTVYLQMNSLKPVDTAVYYCAAARISVVQGDYWGQGTQVTVSS	high polyreactivity
QVQLVESGGGLVQAGGSLRLRCAASGGTFNVYAMGWYRQAPGKERELVARITWNGGRTSYADSVKGRFTISRDNAKNTVYLQMNSLKPEDTAVYFCAAETRYKRIYPYGRATEDYWGQGTQVTVSS	high polyreactivity
QFQLVESGGGLVPARGSLRLSCAASGLIFKRNAMGWYRQAPGKERELDASNSGRGGSTYYADSLTGRFTISRDNAKKTVYLQMNSLKPEDTAVYFCAADGPPLGRPSYRLFYGYDYWGQGSQVTVSS	high polyreactivity
QVQLVESGGGLVQAGGSLRLSCAASGIIFDDYAMGWYRQAPGKERELVAAISRGGSTYYADSVKGRFTISRDNAKNTVYIQMNSLKPEDTAVYYCAAVVYTIYARYGYCGQGTQVTVSS	high polyreactivity
QVQLQESGGGLVLAGGSLRLSCADSGYISWSFTMVWYRKAPGKEREFVAGITYGGITYYADSVKGRFTISRDNAKNTVYLQMNSLKPEDTAVYYCAAPQTYPYVYVYWGQGTQLTVSS	high polyreactivity
QVQLVESGGALDQAGGSLRLSCAASGSTFYYYAMGWYRQAPGKERELVAAISTSDGSTYYADSVKGRFTISRDNAKNTVYLQMNSLKPEDTAVYYCAADSHDRFPSYYYWGQGTQVTVSS	low polyreactivity
QVQLVESGGGLVQAGGSLRLSCAASGFTFTRNAMGWYRQAPGKERFVAAITGSGASTYYADSVKGRFTISRDNAKNTVYLQMNSLKPEDTAVYYCNAEYYAGRYRYDYWGQGTQVTVSS	high polyreactivity
QVQHVESGGGLVQAGGSLRLSCAASGRIFGYYAMGWYRQAHGKQSELVAAITSGGRTNYADSVKGRFTISRDNAKNTVYLQMNSLKPEDTAVYYCAKEYPRYSSPYDYWGQGTQVTVSS	low polyreactivity
QVQLVESGGGLVQAGGSLRLSCAASGSIFHANAMGWYRQAPGKERELVAAISQSCDTTYYADSVKGRFTISRDNAKNTVYLQMNSLKPEDTAVYYCAAEEGYGAFWYDYWGQGTQVTVSS	high polyreactivity
QVQLVESGGGLVQAGGSLRLSCAASGRTFYSYVMGWYRQAPGKERELVAAIRSSGRTYYADSVKGRFTISRDNAKNTVYLQMNRLTPEDTAVYYCAAYAWVSGSLYDSWGQGTQVTVSS	high polyreactivity
QVQLVESGGGLVQAGGSLRLSCAASGSTFKRNAMGWYRPAPGKERELVAAITFSGATTYYADSVKGRFTISRDNAKNTVYLQMNSLKPEDTAVYYCATKAYTTGRYYWGQGTQVTVSS	high polyreactivity
QVQLVQSGGGLVQAGGSLSLSCAASGSIFPGYTRGWYRQAPGKERELVAAISRRGGSTYYADSVKGRFTISRDNAKNPGYLQMNSLKPEDTAVYYCAKVPDYRFEYWGQGTQVTVSS	high polyreactivity
QVQLVESGGGLVQAGGILRLSCAPSGSTFTFYAMGLYRQAPGKERELVAAINSSGGRTYYADSVKGRFTISRDNAKNTVYLQMNSLKPEDTAVYYCAARRPLVRYIMGYWGQGTQVTVSS	high polyreactivity
QVQLVESGGGLVQAGGSLRLICAASGSIFTPYAMGWYRQAPGKERELVAAISTSGGSTYYADSVKGRFTISRDNAKNTVYLQMNSLKPEDTAVYYCYTVYYSQREIYYWGYDSWGQGTQVTVSS	high polyreactivity
QVQLVESGGGLVQAGGSLRLSCAASGSIFSKYAMGWYRQAPGKERELVAAITSSGGSTYYADSVKGRFTISRDNAKNTVYLQMNSLKPEDNAVYYCAAGGRSVRYNYWGQGTQVTVSS	high polyreactivity
QVLLQESGGGLVQAGGSLRLSCAASGSIFLFYTMGWYRQAPVKEREFVAGITLGTTTYNADSVKGRFTISRDNVKNTLYLQMNSLKPEDTAVYYCAVAVGHYTEFWYWGQGTQVTMSS	high polyreactivity
